Data reported in patent US20240132589A1.

Experiments:
[1] = target: Human LILRB2 on stably transduced HEK293T cells (human) (UniProt Q8N423); assay: flow cytometry competition on HEK293T-LILRB2 cells; blocking mAb 1 µg/mL; competitor: biotinylated B2Comp1
[2] = target: Human LILRB2 on stably transduced HEK293T cells (human) (UniProt Q8N423); assay: flow cytometry competition on HEK293T-LILRB2 cells; blocking mAb 1 µg/mL; competitor: biotinylated B2Comp2
[3] = target: Human LILRB2 on stably transduced HEK293T cells (human) (UniProt Q8N423); assay: flow cytometry competition on HEK293T-LILRB2 cells; blocking mAb 10 µg/mL; competitor: biotinylated B2Comp1
[4] = target: Human LILRB2 on stably transduced HEK293T cells (human) (UniProt Q8N423); assay: flow cytometry competition on HEK293T-LILRB2 cells; blocking mAb 10 µg/mL; competitor: biotinylated B2Comp2
[5] = target: Human LILRB2 on stably transduced HEK293T cells (human) (UniProt Q8N423); assay: flow cytometry competition on HEK293T-LILRB2 cells; blocking mAb 0.1 µg/mL; competitor: biotinylated B2Comp1
[6] = target: Human LILRB2 on stably transduced HEK293T cells (human) (UniProt Q8N423); assay: flow cytometry competition on HEK293T-LILRB2 cells; blocking mAb 0.1 µg/mL; competitor: biotinylated B2Comp2

Human LILRB2 on stably transduced HEK293T cells (human), sequence (Q8N423 other isoform, or with tags, fused parts or gaps limits assumed): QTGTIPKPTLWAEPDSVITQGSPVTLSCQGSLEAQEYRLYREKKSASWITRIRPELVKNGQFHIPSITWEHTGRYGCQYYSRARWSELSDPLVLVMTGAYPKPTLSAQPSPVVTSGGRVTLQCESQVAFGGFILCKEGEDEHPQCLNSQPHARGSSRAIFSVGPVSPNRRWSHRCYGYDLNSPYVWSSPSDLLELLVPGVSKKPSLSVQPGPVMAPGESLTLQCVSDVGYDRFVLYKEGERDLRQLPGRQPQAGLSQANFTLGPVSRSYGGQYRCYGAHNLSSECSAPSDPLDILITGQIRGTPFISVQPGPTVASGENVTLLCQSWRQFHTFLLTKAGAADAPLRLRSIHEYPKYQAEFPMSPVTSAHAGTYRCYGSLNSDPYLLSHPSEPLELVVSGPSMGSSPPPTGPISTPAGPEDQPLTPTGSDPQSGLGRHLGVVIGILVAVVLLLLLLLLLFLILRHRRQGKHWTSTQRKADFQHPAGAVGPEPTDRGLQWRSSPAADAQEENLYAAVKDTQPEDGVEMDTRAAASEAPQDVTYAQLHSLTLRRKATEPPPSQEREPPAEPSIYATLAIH

hIgG4 isotype control (antibody)
0%: % Blocking of B2Comp1 Binding [1] | % Blocking of B2Comp2 Binding [2] | % Blocking of B2Comp1 Binding [3] | % Blocking of B2Comp2 Binding [4] | % Blocking of B2Comp1 Binding [5] | % Blocking of B2Comp2 Binding [6]
